In data set [1] the target is T1, UV … LOCUS8 (UVR8), purified wild-type (Arabidopsis thaliana), Q9FN03.
T1 chain: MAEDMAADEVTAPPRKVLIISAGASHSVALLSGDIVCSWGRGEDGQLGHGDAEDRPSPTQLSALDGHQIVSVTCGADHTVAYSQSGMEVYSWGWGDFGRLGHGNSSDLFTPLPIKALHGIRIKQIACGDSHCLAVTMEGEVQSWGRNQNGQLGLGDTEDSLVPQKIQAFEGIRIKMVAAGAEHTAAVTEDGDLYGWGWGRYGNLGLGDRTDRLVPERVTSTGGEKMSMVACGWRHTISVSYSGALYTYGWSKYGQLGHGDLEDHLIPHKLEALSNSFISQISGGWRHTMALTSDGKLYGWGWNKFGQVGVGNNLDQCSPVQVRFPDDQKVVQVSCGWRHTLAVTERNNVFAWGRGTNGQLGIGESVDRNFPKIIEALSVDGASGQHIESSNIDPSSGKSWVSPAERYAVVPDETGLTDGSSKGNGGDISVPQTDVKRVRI
Briefly: SEC; purified proteins not exposed to UV-B; Superdex 200 HR10/30, 50 mM Tris pH 7.5, 150 mM NaCl, 1 mM β-ME, 0.02% sodium azide, 4°C; dimer to monomers. The note with it: remark: other sources report otherwise.

Data set [2] deals with the molecule itself. The data set can be described thus: cross-linking; DSP (4 mM, 30 min on ice) added to PBS extracts of transgenic uvr8-1 plants not exposed to UV-B; 10% SDS-PAGE without β-ME, blot with anti-UVR8.
Data set [3] addresses T2, GFP-UVR8 (wild type) transiently expressed in Nicotiana benthamiana (Arabidopsis thaliana), Q9FN03.
T2 chain: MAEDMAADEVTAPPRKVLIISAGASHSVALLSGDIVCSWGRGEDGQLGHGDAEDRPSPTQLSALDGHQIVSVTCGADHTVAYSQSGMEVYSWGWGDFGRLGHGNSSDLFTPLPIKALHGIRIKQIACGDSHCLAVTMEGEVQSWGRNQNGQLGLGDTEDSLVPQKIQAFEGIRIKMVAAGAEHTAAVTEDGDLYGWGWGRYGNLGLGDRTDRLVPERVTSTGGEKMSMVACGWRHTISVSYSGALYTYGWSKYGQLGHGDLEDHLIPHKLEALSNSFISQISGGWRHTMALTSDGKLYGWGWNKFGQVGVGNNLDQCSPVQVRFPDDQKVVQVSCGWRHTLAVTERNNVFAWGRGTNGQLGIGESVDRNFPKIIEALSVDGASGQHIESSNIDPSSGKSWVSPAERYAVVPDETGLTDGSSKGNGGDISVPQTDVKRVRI
The data set can be described thus: SEC; GFP fusions transiently expressed in N. benthamiana, not exposed to UV-B, immunoprecipitated with anti-GFP microbeads; eluates on Superdex 200, fractions blotted with anti-GFP. Particulars: remark: other sources report otherwise. On the technique in general: Size exclusion chromatography separates by hydrodynamic size, large species first.

Data set [4] deals with the molecule itself. The data set can be described thus: SEC; purified proteins not exposed to UV-B; Superdex 200 HR10/30, 50 mM Tris pH 7.5, 150 mM NaCl, 1 mM β-ME, 0.02% sodium azide, 4°C; dimer to monomers.
For data set [5], the target named is T3, GFP-UVR8 (wild type) in transgenic Arabidopsis uvr8-1 (Arabidopsis thaliana), Q9FN03.
T3 chain: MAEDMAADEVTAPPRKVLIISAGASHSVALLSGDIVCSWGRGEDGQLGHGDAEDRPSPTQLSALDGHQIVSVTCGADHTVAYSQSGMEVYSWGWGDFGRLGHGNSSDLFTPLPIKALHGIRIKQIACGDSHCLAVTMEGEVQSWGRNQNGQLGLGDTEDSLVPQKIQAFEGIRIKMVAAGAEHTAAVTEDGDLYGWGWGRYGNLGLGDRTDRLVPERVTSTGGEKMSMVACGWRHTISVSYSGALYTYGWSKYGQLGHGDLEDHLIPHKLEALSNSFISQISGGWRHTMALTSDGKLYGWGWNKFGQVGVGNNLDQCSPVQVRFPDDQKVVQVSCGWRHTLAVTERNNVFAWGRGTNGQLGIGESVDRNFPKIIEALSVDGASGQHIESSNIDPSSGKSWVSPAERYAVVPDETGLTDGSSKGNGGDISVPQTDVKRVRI
Briefly: cross-linking; DSP (4 mM, 30 min on ice) added to PBS extracts of transgenic uvr8-1 plants not exposed to UV-B; 10% SDS-PAGE without β-ME, blot with anti-UVR8. The note with it: remark: other sources report otherwise.

Data set [6] addresses T3, GFP-UVR8 (wild type) in transgenic …. Briefly: SDS-PAGE with non-boiled samples; whole cell extracts of transgenic uvr8-1 plants not exposed to UV-B; SDS-loading buffer, not boiled, 7.5% gel, blot with anti-UVR8. Particulars: remark: other sources report otherwise.

B1: UV … LOCUS8 (UVR8), purified wild-type, Q9FN03 1-440 (natural protein)
chain: MAEDMAADEVTAPPRKVLIISAGASHSVALLSGDIVCSWGRGEDGQLGHGDAEDRPSPTQLSALDGHQIVSVTCGADHTVAYSQSGMEVYSWGWGDFGRLGHGNSSDLFTPLPIKALHGIRIKQIACGDSHCLAVTMEGEVQSWGRNQNGQLGLGDTEDSLVPQKIQAFEGIRIKMVAAGAEHTAAVTEDGDLYGWGWGRYGNLGLGDRTDRLVPERVTSTGGEKMSMVACGWRHTISVSYSGALYTYGWSKYGQLGHGDLEDHLIPHKLEALSNSFISQISGGWRHTMALTSDGKLYGWGWNKFGQVGVGNNLDQCSPVQVRFPDDQKVVQVSCGWRHTLAVTERNNVFAWGRGTNGQLGIGESVDRNFPKIIEALSVDGASGQHIESSNIDPSSGKSWVSPAERYAVVPDETGLTDGSSKGNGGDISVPQTDVKRVRI
As usually defined, the stoichiometry N is the number of molecules, sites or subunits per partner or assembly. For B1, the stoichiometry N in data set [1] was 2.

B2: GFP-UVR8^R146A in transgenic Arabidopsis uvr8-1 (natural protein, Arabidopsis thaliana, UniProt Q9FN03 1-440, looked up)
chain: MAEDMAADEVTAPPRKVLIISAGASHSVALLSGDIVCSWGRGEDGQLGHGDAEDRPSPTQLSALDGHQIVSVTCGADHTVAYSQSGMEVYSWGWGDFGRLGHGNSSDLFTPLPIKALHGIRIKQIACGDSHCLAVTMEGEVQSWGANQNGQLGLGDTEDSLVPQKIQAFEGIRIKMVAAGAEHTAAVTEDGDLYGWGWGRYGNLGLGDRTDRLVPERVTSTGGEKMSMVACGWRHTISVSYSGALYTYGWSKYGQLGHGDLEDHLIPHKLEALSNSFISQISGGWRHTMALTSDGKLYGWGWNKFGQVGVGNNLDQCSPVQVRFPDDQKVVQVSCGWRHTLAVTERNNVFAWGRGTNGQLGIGESVDRNFPKIIEALSVDGASGQHIESSNIDPSSGKSWVSPAERYAVVPDETGLTDGSSKGNGGDISVPQTDVKRVRI
notes: UV … LOCUS8 (UVR8), Arabidopsis thaliana; Sub-cloned into pEZR(K)L-C downstream of eGFP; also called line 9; source: transgenic Arabidopsis uvr8-1 plants (CaMV 35S promoter), in whole cell extract; not shown: eGFP, N-terminal, kept
Take B2: the “stoichiometry N” value in data set [2] was found to be 2.

B3: GFP-UVR8 (wild type) transiently expressed in Nicotiana benthamiana, Q9FN03 1-440 (natural protein)
chain: MAEDMAADEVTAPPRKVLIISAGASHSVALLSGDIVCSWGRGEDGQLGHGDAEDRPSPTQLSALDGHQIVSVTCGADHTVAYSQSGMEVYSWGWGDFGRLGHGNSSDLFTPLPIKALHGIRIKQIACGDSHCLAVTMEGEVQSWGRNQNGQLGLGDTEDSLVPQKIQAFEGIRIKMVAAGAEHTAAVTEDGDLYGWGWGRYGNLGLGDRTDRLVPERVTSTGGEKMSMVACGWRHTISVSYSGALYTYGWSKYGQLGHGDLEDHLIPHKLEALSNSFISQISGGWRHTMALTSDGKLYGWGWNKFGQVGVGNNLDQCSPVQVRFPDDQKVVQVSCGWRHTLAVTERNNVFAWGRGTNGQLGIGESVDRNFPKIIEALSVDGASGQHIESSNIDPSSGKSWVSPAERYAVVPDETGLTDGSSKGNGGDISVPQTDVKRVRI
Consider B3, for which the stoichiometry N in data set [3] stood at 2.

B4: UVR8^R146A, purified (natural protein, Arabidopsis thaliana, UniProt Q9FN03 1-440, looked up)
chain: MAEDMAADEVTAPPRKVLIISAGASHSVALLSGDIVCSWGRGEDGQLGHGDAEDRPSPTQLSALDGHQIVSVTCGADHTVAYSQSGMEVYSWGWGDFGRLGHGNSSDLFTPLPIKALHGIRIKQIACGDSHCLAVTMEGEVQSWGANQNGQLGLGDTEDSLVPQKIQAFEGIRIKMVAAGAEHTAAVTEDGDLYGWGWGRYGNLGLGDRTDRLVPERVTSTGGEKMSMVACGWRHTISVSYSGALYTYGWSKYGQLGHGDLEDHLIPHKLEALSNSFISQISGGWRHTMALTSDGKLYGWGWNKFGQVGVGNNLDQCSPVQVRFPDDQKVVQVSCGWRHTLAVTERNNVFAWGRGTNGQLGIGESVDRNFPKIIEALSVDGASGQHIESSNIDPSSGKSWVSPAERYAVVPDETGLTDGSSKGNGGDISVPQTDVKRVRI
notes: UV … LOCUS8 (UVR8), Arabidopsis thaliana; source: E. coli, purified as described previously (Christie et al., 2012)
Regarding B4, the “stoichiometry N” value in data set [4] worked out at 2.

B5: GFP-UVR8^R286K in transgenic Arabidopsis uvr8-1 (natural protein, Arabidopsis thaliana, UniProt Q9FN03 1-440, looked up)
chain: MAEDMAADEVTAPPRKVLIISAGASHSVALLSGDIVCSWGRGEDGQLGHGDAEDRPSPTQLSALDGHQIVSVTCGADHTVAYSQSGMEVYSWGWGDFGRLGHGNSSDLFTPLPIKALHGIRIKQIACGDSHCLAVTMEGEVQSWGRNQNGQLGLGDTEDSLVPQKIQAFEGIRIKMVAAGAEHTAAVTEDGDLYGWGWGRYGNLGLGDRTDRLVPERVTSTGGEKMSMVACGWRHTISVSYSGALYTYGWSKYGQLGHGDLEDHLIPHKLEALSNSFISQISGGWKHTMALTSDGKLYGWGWNKFGQVGVGNNLDQCSPVQVRFPDDQKVVQVSCGWRHTLAVTERNNVFAWGRGTNGQLGIGESVDRNFPKIIEALSVDGASGQHIESSNIDPSSGKSWVSPAERYAVVPDETGLTDGSSKGNGGDISVPQTDVKRVRI
notes: UV … LOCUS8 (UVR8), Arabidopsis thaliana; Sub-cloned into pEZR(K)L-C downstream of eGFP; also called line 2-3; source: transgenic Arabidopsis uvr8-1 plants (CaMV 35S promoter), in whole cell extract; not shown: eGFP, N-terminal, kept
For the molecule B5, in data set [2], the “stoichiometry N” value was found to be 2.

B6: UVR8^R286K, purified (natural protein, Arabidopsis thaliana, UniProt Q9FN03 1-440, looked up)
chain: MAEDMAADEVTAPPRKVLIISAGASHSVALLSGDIVCSWGRGEDGQLGHGDAEDRPSPTQLSALDGHQIVSVTCGADHTVAYSQSGMEVYSWGWGDFGRLGHGNSSDLFTPLPIKALHGIRIKQIACGDSHCLAVTMEGEVQSWGRNQNGQLGLGDTEDSLVPQKIQAFEGIRIKMVAAGAEHTAAVTEDGDLYGWGWGRYGNLGLGDRTDRLVPERVTSTGGEKMSMVACGWRHTISVSYSGALYTYGWSKYGQLGHGDLEDHLIPHKLEALSNSFISQISGGWKHTMALTSDGKLYGWGWNKFGQVGVGNNLDQCSPVQVRFPDDQKVVQVSCGWRHTLAVTERNNVFAWGRGTNGQLGIGESVDRNFPKIIEALSVDGASGQHIESSNIDPSSGKSWVSPAERYAVVPDETGLTDGSSKGNGGDISVPQTDVKRVRI
notes: as for B4
With B6, in data set [4], the “stoichiometry N” value was determined as 2.

B7: GFP-UVR8 (wild type) in transgenic Arabidopsis uvr8-1, Q9FN03 1-440 (natural protein)
chain: MAEDMAADEVTAPPRKVLIISAGASHSVALLSGDIVCSWGRGEDGQLGHGDAEDRPSPTQLSALDGHQIVSVTCGADHTVAYSQSGMEVYSWGWGDFGRLGHGNSSDLFTPLPIKALHGIRIKQIACGDSHCLAVTMEGEVQSWGRNQNGQLGLGDTEDSLVPQKIQAFEGIRIKMVAAGAEHTAAVTEDGDLYGWGWGRYGNLGLGDRTDRLVPERVTSTGGEKMSMVACGWRHTISVSYSGALYTYGWSKYGQLGHGDLEDHLIPHKLEALSNSFISQISGGWRHTMALTSDGKLYGWGWNKFGQVGVGNNLDQCSPVQVRFPDDQKVVQVSCGWRHTLAVTERNNVFAWGRGTNGQLGIGESVDRNFPKIIEALSVDGASGQHIESSNIDPSSGKSWVSPAERYAVVPDETGLTDGSSKGNGGDISVPQTDVKRVRI
Regarding B7, the stoichiometry N in data set [5] and in data set [6] was 2 throughout.

The values are drawn from publication PMC5091643, “Dimer/monomer status and in vivo function of salt‐bridge mutants of the plant UV‐B photoreceptor UVR8” (The Plant Journal, 2016).
